Consider 5 sequences from a protein production outcome set (Wang et al. 2014).

The series is described as follows: label from the status in PepcDB records.
“MKRVVEAWDRFQIPLYITALIAGALVGLQWPGSTGGFESAINPALMALLYATFLGIPITRIGAALKDLRFLIVLMSVNFVAVPLVAFALSRFIAGDEALLIGFLLVILAPCIDYVIVFAGLARAAQDKLLAATPILMLVQILLIPVFLAVFVGSDALGSISFGPFVEAFFLLILIPLVAAAGTQQVARKWQVGRTIMAAAEAIMVPLMMLTLFAVIASQVEAVSGQFTDIATVVPLYVAFLMVMIPIGGGISKLGGLGFKEQRAIVFSGATRNSLVVLPLALALPAGLEIAAVVVVTQTLVELIGMVVYVRIIPLIFHEKQTYRKLSGIGES”: the protein production result is reported as “failed”.

Consider “MKSASGQEKSIVVRRFDPARFVALVRKESLQAMRDPSTLLIALVLPLILLFLFAYAVSLDVRHVRIGVVLESPGATARTLADAFSGTHYLDVTFAYDRREVAGKLIAGELRGYVVIPQNFERHFADTGSPLVQIITDGSQPNTANFVANYAQGVVQTWMASLTETMPMPAVQLEPRYWFNPELASRRALVPGAIAIIMTIIGTLLTALVVAREWERGTMEAILSTPASVLEILVGKLLPYFVLGMLSTLIAAALAVFLFNVPLRGSLFALLVLSAVFMMPALGQGLLISSLARNQFLASQLALFSGYLPAFMLSGFLFEIDAMPALIRAITWLIPARYFVSSLKTIFLAGDVWSVFLPDLLGMATIGLIFFLIAQRYTRKSLE”, for which the protein production result is on record as “failed”.

Consider “MKSEMVLSFMATLAQEESHTKSEIMNASIEMRFRRGIFLTPTLLGYDHDEDGNLVVNEGEAKIVRLIFMMYLNGCTCQEIADTMTELGCETKKGNTVWSPGSILQILQNERHCGDVLARKTYTPNYLNHKSKKNMQNRPQYRKRNHHEAIISRDDFIAVQRLISNAKYGNKGILPELKVISNGVLKGFVSINPRWAGFKENDYISASLSVYDQMEQLSPSASSVEVQSGDFDLRGYEIARSQFFDGTDRITVTFSLNDIKFSTAAVRKLNSTLVELLLHPNKHLFAVRTASQAHRNAMQWAKKRGELSVPRAVSGTAFMPTVYALLGWNTDCRYRITGIRRGNGNDAVLLFNLEETEIFIPSDVIDEQQTSDARTDVKPFTDNQKKNVRAYPPDWADTFGSNYYCHAQAHELAGFNSRDVISNEAVAYKDSDIQVTSPDEVEKNIEQLMSDMKENSNELEHHHHHH”, for which the protein production entry is reported as “failed”.

Turning to “MKSFSIPIRFMLISSFFMSFGYFAVYAFLAIYLLSFLHFSTFQVGTVLTVIIITSRVIPLFSGLIADKIGYIIMMIAGLFLRGIGFIALGICSDFYTVSISSALIGFGTAFYEPAARAIFGSQPAHLRKNLFTYLNLSFNCGAIIGPIAGGFLLLLDPIYAFSLTGSLMLLFALIFYLLKNHFQVTTESTSIALGIQTILQNKSFLLFSFIMIFFYIMFTQLTVALPLHMKNISNSNQLATLVITINAITGVIFMVLFRKLFHKYNTLSFIKYGILLMSISFLLIPLFQHPYWLFICVIFFTIGETLVLPNADIAIANYSNESYTATFFGFYQLSLAFGFIIGNYTGTWFKSKLNGMYTPWLIFGGIGLIGFISLHILNIKKERSKEDIYLLEKY”, the protein production result is listed as “failed”.

For “MKSKIFSTSLAFAFLLLITTVASAGQEIQITPYGERGLNPAIYDNKIAWLDKYINGSLHLRDLSTGKEIQITEDPWYSYLAVYNDKIVWGPGGQNIYLYNISTNHKTLLSIPESENQGSRDSLTIYGDKIVWRDQSGGYQDIYMYDLSTYNKTRITTNQSTKDPVIYGDKIVWQEDPSFGFGSSYHDIYVYNLSTSNKTRVTTNRSASSPNVYGDRIVYMESNNIYFHNLSTSLETQITFNGSRKDKLAIYGDRIVWQDDRNGNWDVYVYDLSEDKEIQITNDESDQLNPAIYGDKIVWEDYRNDRENMYYCSIYMYDFSAKPTMPFASFSANITSKSGNMPLTVLFTCNSTGGTPTSWYWDFGDGINSKHAQTATHTFKKPGTYDVSLTVTNFAGNSTLKKSNYITVTPQQAPIADFFSPEVYHANTYGGSVPTKTVSFVDNSTGSPTSWLWDFGDGNTSTEQNPTHVYDVEGGYTVNLTVKNVVGSNTTSKYGYVLVGLGDGSVAPEYFSSSVTSGDAPLKVTFHGGTGYANDWTFGDGSRQSVGENQTVEHTYLEPGQYTVSLSEYNVGGTAAITKYHYITVTGLTRPVASFTSEKVSVPMSLTIAFTDTSIGKPTSWYWDFGDGDSSTEQNPTHTYSAAGNYTVSLTASNENSTNSTFRVIDVFKTTGPFAYVISGNNISVIDTATDKVVDTIEIGSGLVGVAVNPTGTKVYVANEGNNTVSVIDTSISKVIATVNGLNSPYAIAITPDGKKAYVTNNSGAVFENGTVYVIDTGTSTVMNTVNVGSVPHGVAVSLDGAKVYVTNYYDISVIDTATNKVTATLNVGQYPDGIAVSPDGTKIYVTNGGSDNVSVIDTETNNVTATLPVGDNPVRVAVTPDGTKLYVTNYKGNTISVINTTTNTVTATIPGDGPYGVSITPDGKKVYVTNLGSDLSGKTVSVIDTAANTVIATVKVGSYPREVAVAPYGK”, the protein production entry is listed as “failed”.
